# Assay results: US20110135645A1
# What was measured:
# [1] = target: HMPV F ectodomain lacking the transmembrane domain (FΔTM), 6xHis-tagged, strain TN/92-4 (genogroup A2) (human metapneumovirus); test: SPR (BIAcore 2000), HMPV FΔTM immobilized, 1:1 Langmuir fit
# [2] = target: F protein of HMPV genogroup B2 strain (virus in plaque reduction assay) (human metapneumovirus) (UniProt Q6WB98); test: cell-based or functional assay
# [3] = target: F protein of HMPV genogroup B1 strain (virus in plaque reduction assay) (human metapneumovirus) (UniProt Q6WB98); test: cell-based or functional assay
# [4] = target: F protein of HMPV genogroup A1 strain (virus in plaque reduction assay) (human metapneumovirus) (UniProt Q6WB98); test: cell-based or functional assay
# [5] = target: F protein of HMPV genogroup A2 strain (virus in plaque reduction assay) (human metapneumovirus) (UniProt Q6WB98); test: cell-based or functional assay
substance,measurement,setting,value
Fab DSλ7,Kd,[1],0.984 nM
same,koff,[1],3.48e-05 s⁻¹
same,"Neut. Dilution (60% plaque reduction), B2 (dilution (1:x))",[2],< 20
same,"Neut. Conc. (60% plaque reduction), B1",[3],2.4 µg/mL
same,"Neut. Dilution (60% plaque reduction), B1 (dilution (1:x))",[3],488
same,"Neut. Conc. (60% plaque reduction), A1",[4],9.8 µg/mL
same,"Neut. Dilution (60% plaque reduction), A1 (dilution (1:x))",[4],120
same,Neut. Conc. (60% plaque reduction),[5],1.1 µg/mL
same,"Neut. Conc. (60% plaque reduction), A2",[5],1.1 µg/mL
same,Neut. Dilution (60% plaque reduction) (dilution (1:x)),[5],1110
same,"Neut. Dilution (60% plaque reduction), A2 (dilution (1:x))",[5],1040
